{
  "source": "patent US20090162336A1",
  "key": {"[1]": {"target": "taxol-stabilized microtubules made from PC tubulin", "assay": "microtubule pelleting assay"}, "[2]": {"target": "taxol-stabilized microtubules made from PC tubulin", "assay": "microtubule pelleting assay, microtubules from 10 µM tubulin with 20 µM taxol"}, "[3]": {"target": "taxol-stabilized microtubules made from PC tubulin", "assay": "microtubule pelleting assay, gel densitometry, 30 µM polymerized tubulin"}, "[4]": {"target": "taxol-stabilized microtubules made from PC tubulin", "assay": "microtubule pelleting assay, brain extract phosphorylation"}, "[5]": {"target": "taxol-stabilized microtubules made from PC tubulin", "assay": "microtubule pelleting assay, after 35 kDal kinase, against unphosphorylated htau23"}, "[6]": {"target": "taxol-stabilized microtubules made from PC tubulin", "assay": "microtubule pelleting assay, after 35 kDal kinase"}},
  "data": [
    {"substance": "htau34 phosphorylated for 90 min with the brain extract kinase activity (stage 1) (from UniProt P10636 1-412)", "values": [
      {"measurement": "fold decrease in stoichiometry upon phosphorylation", "setting": "[1]", "value": 3, "unit": "fold"}
    ]},
    {"substance": "htau34 phosphorylated with the brain extract kinase activity (24 hours) (from UniProt P10636 1-412)", "values": [
      {"measurement": "fold reduction in binding capacity against unphosphorylated htau34", "setting": "[1]", "value": 3, "unit": "fold"}
    ]},
    {"substance": "htau23 phosphorylated with GSK3 (from UniProt P10636 1-352)", "values": [
      {"measurement": "stoichiometry at saturation (tau per tubulin dimer) (per tubulin dimer)", "setting": "[2]", "value": 0.6}
    ]},
    {"substance": "htau23 phosphorylated with the brain extract kinase activity (full, stage 3, 24 hours) (from UniProt P10636 1-352)", "values": [
      {"measurement": "Kd", "setting": "[3]", "value": 4.9, "unit": "µM"},
      {"measurement": "stoichiometry n (tau/tubulin dimer) (tau/tubulin dimer)", "setting": "[3]", "value": 0.16},
      {"measurement": "Dn (difference in stoichiometry upon phosphorylation) (tau/tubulin dimer)", "setting": "[4]", "value": 0.33}
    ]},
    {"substance": "S404-A mutant of htau34 after 90 min of phosphorylation with the brain extract kinase activity (from UniProt P10636 1-412)", "values": [
      {"measurement": "fold decrease in stoichiometry upon phosphorylation", "setting": "[1]", "value": 2, "unit": "fold"}
    ]},
    {"substance": "htau23 phosphorylated by the 35 kDal kinase (from UniProt P10636 1-352)", "values": [
      {"measurement": "reduction in stoichiometry upon phosphorylation (Dn) (tau/tubulin dimer)", "setting": "[5]", "value": 0.28},
      {"measurement": "Kd", "setting": "[6]", "value": 8.8, "unit": "µM"},
      {"measurement": "stoichiometry n (tau/tubulin dimer) (tau/tubulin dimer)", "setting": "[6]", "value": 0.21}
    ]},
    {"substance": "htau23 mutant Ser262-Ala phosphorylated by the 35 kDal kinase (from UniProt P10636 1-352)", "values": [
      {"measurement": "reduction in stoichiometry upon phosphorylation (Dn) (tau/tubulin dimer)", "setting": "[5]", "value": 0.05},
      {"measurement": "Kd", "setting": "[6]", "value": 11.6, "unit": "µM"},
      {"measurement": "stoichiometry n (tau/tubulin dimer) (tau/tubulin dimer)", "setting": "[6]", "value": 0.44}
    ]},
    {"substance": "bacterially expressed human tau isoform htau34, unphosphorylated (from UniProt P10636 1-412)", "values": [
      {"measurement": "Kd", "setting": "[3]", "value": "1 to 2", "unit": "µM"}
    ]},
    {"substance": "htau23 mutant Ser262-Ala phosphorylated with brain extract (from UniProt P10636 1-352)", "values": [
      {"measurement": "Kd", "setting": "[3]", "value": 5.3, "unit": "µM"},
      {"measurement": "stoichiometry n (tau/tubulin dimer) (tau/tubulin dimer)", "setting": "[3]", "value": 0.45},
      {"measurement": "Dn (difference in stoichiometry upon phosphorylation) (tau/tubulin dimer)", "setting": "[4]", "value": 0.04}
    ]}
  ]
}
